Changes are numbered by the printed parent chain. Like-named read-outs stand apart in the source and are kept apart here.
B1: A2A5C7E8 (antibody, V domains shown)
VH: EVQLVQSGAEVKKPGESLRISCKGSGYSFTTYWISWVRQMPGKGLEWMGLIDPSDSYTNYSPSFQGHVTISTDKSISTAYLQWSSLKASDTAMYYCARGGYYGSEEDYWGQGTLVTVSS
VL: EIVLTQSPGTLSLSPGERATLSCRASQSVSSSRLAWFQQKSGQAPRLLIFDASSRATGIPDRFSGSGSGTDFTLTISRLEPEDFAVYYCQQYGSSPRTFGQGTKVEFK
notes: Fully human antibody from transgenic mouse hybridoma; also called A2A5C7E8-1
B2: A2A5C7E8-2 (antibody, human IgG1, kappa, V domains shown)
VH: B1 VH with D55E
VL: EIVLTQSPGTLSLSPGERATLSCRASQSVSSSRLAWFQQKSGQAPRLLIFDASSRATGIPDRFSGSGSGTDFTLTISRLEPEDFAVYYCQQYGSSPRTFGQGTKVEFKR
notes: Variant of A2A5C7E8 modified in VH CDR2 (X1 = E)
B3: A2A5C7E8-3 (antibody, human IgG1, kappa, V domains shown)
VH: B1 VH with Q65K
VL: B2 VL
notes: Variant of A2A5C7E8 modified in VH CDR2 (X2 = K)
B4: anti-Siglec15 benchmark (ch5G12) (antibody, human IgG1, kappa, V domains shown)
VH: QVQLQQPGAELVKPGASVKMSCKASGYTFTSYWITWVIQRPGQGLEWIGDIYCGSDTMHYNEKFKNKATLTVDTSSSTAYMQLSSLTSEDSAVYYCARWWDYGSSYDYFDYWGQGTTLTVSS
VL: DIKMTQSPSSMYASLGERVTITCKASQDINSYLSWFQQKPGKSPKTLIYRANRLVDGVPSRFSGSGSGQDYSLTISSLEYEDMGIYYCLQYDEFPYTFGGGTKLEIKR
notes: ch5G12 (US 20190202912A1); also called BM; Siglec15-ch5G9
B5: B2D7H7A3C1 (antibody, V domains shown)
VH: QVQLQQSGAELVRPGTSVQMSCKAAGYTFTNYWIGWVKQRPGHGLEWVGDIHPGINYTNNNEKFRGKATLTADTSSNTAYMQLRGLTSDDSAIYYCARVDYDYDGSYIMDYWGQGTSVTVSS
VL: QIVLSQSPALLSASPGEKVTMTCRASSSVSYMYWYQQKPGSSPKPWIYATSNLTSGVPARFSGSGSGTSYSLTISRVEAEDAATYFCQQWNSKPWTFGGGSKLEIR
notes: Mouse monoclonal antibody from hybridoma; also called mouse B2D7H7A3C1
B6: B2H2H1H7 (antibody, V domains shown)
VH: B5 VH with N77S
VL: B5 VL with V3I, K102R
notes: Mouse monoclonal antibody from hybridoma; also called mouse B2H2H1H7; B2H2H1A7
B7: B2G12H3E8 (antibody, V domains shown)
VH: B5 VH with Q5K, A25V, N77S
VL: B5 VL
notes: Mouse monoclonal antibody from hybridoma; also called mouse B2G12H3E8
B8: A1E10G7H9 (antibody, V domains shown)
VH: QVQLQESGPGLVKPSGTLSLTCAVSGGSISSSNWWHWVRQPPGKGLEWIGEIYHSGNTNYKPSLKSRVTISVDKSKNQFSLKLSSVTAADTAVYYCARDEGNGWSNAFDIWGQGTMVTVSS
VL: ENVLTQSPGTLSLSPGERVTLSCRASQSVSSSYLAWYQQKPGQAPRFLIYGASGGATGIPDRFSGSGSGTDFTLTISRLEPEDFAVYYCQQYGSSPITFGQGTRLEIK
notes: Fully human antibody from transgenic mouse hybridoma

What was measured:
[1] = target: T1, human Siglec15 on human-siglec15-2D3-1E1 cells (human, UniProt Q6ZMC9 20-328); assay: cell based binding FACS on human-siglec15-2D3-1E1 cells
T1 construct: whole, on cells; Transfected HEK-293 cells; also called cell surface human Siglec15
T1 sequence (looked up): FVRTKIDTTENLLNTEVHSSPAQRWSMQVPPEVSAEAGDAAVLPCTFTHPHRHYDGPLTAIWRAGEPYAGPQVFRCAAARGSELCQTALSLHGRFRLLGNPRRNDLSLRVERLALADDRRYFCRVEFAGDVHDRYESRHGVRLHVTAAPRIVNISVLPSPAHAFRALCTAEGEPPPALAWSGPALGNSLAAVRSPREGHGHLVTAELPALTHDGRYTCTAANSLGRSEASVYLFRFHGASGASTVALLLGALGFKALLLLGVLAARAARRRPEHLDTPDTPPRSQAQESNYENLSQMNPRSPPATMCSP
Protocol: (§1) The binding activities of the anti-Siglec15 antibodies to cell surface Siglec15 were tested by flow cytometry (FACS), using in-house prepared human-siglec15-2D3-1E1 cells expressing human Siglec15 (amino acid residues Met1-Pro328 of uniprot #Q6ZMC9) on cell membranes. The human-siglec15-2D3-1E1 cells were prepared by transfecting HEK-293 cells (ATCC #CRL-1573) with pCMV-T-P plasmids inserted with human Siglec15 coding sequence between EcoRI and XbaI sites, following the instruction of lipofectamine 3000 transfection reagent (Thermo Fisher). The human-siglec15-2D3-1E1 cells were harvested from cell culture flasks, washed twice and re-suspended in phosphate buffered saline (PBS) containing 2% v/v Fetal Bovine Serum (FACS buffer). 2×10⁵ cells per well in 96 well-plates were incubated in 100 μL serially diluted anti-Siglec15 antibodies or controls (starting at 66.67 nM, 5-fold serial dilution) in FACS buffer for 40 minutes on ice. […] Following a 40-minute incubation at 4° C. in dark, cells were washed three times and re-suspended in FACS buffer. Fluorescence was measured using a Becton Dickinson FACS Canto II-HTS equipment. Data was analyzed using Graphpad Prism software and EC₅₀ values were reported.

[2] = target: T1, human Siglec15 on …; assay: as above; remark: listed apart in the source
Protocol: as §1

[3] = target: T2, recombinant human Siglec15-his protein (human, UniProt Q6ZMC9 20-263); assay: SPR Biacore T200, antibody captured by anti-human IgG, antigen as analyte, 1:1 fit
T2 construct: In house made; Biotin-labeled in the capture ELISA
T2 sequence: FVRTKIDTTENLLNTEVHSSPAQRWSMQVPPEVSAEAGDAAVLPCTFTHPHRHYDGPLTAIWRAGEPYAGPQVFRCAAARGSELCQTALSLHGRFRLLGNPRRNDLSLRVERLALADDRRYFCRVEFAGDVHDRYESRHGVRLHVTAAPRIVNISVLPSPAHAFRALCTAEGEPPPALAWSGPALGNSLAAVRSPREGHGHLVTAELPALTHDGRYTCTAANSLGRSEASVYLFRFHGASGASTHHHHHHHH
Protocol: Briefly, goat anti-human IgG (GE healthcare, Cat #BR100839, Human Antibody Capture Kit) was covalently linked to a CM5 chip (carboxy methyl dextran coated chip, GE healthcare, Cat #BR-1005-30) via primary amines, using a standard amine coupling kit provided by Biacore (GE healthcare, Pittsburgh, Pa., USA). Un-reacted moieties on the biosensor surface were blocked with ethanolamine. Then, purified anti-Siglec15 antibodies of the disclosure at the concentration of 13.3 nM and an anti-Siglec15 benchmark (ch5G12, also referred to as BM, see U.S. Patent Publication No. 20190202912A1, amino acid sequences of the heavy chain and light chain set forth in SEQ ID NOs: 24 and 25, respectively) at 13.3 nM, were respectively flowed onto the chip at a flow rate of 10 μL/min. Then, serially diluted recombinant human Siglec15-his protein (in house made, amino acid sequence set forth in SEQ ID NO: 20) or cynomolgus monkey Siglec15-his protein (in house made, amino acid sequence set forth in SEQ ID NO: 21), 2-fold serial dilution in HBS-EP⁺ buffer starting at 80 nM, were respectively flown onto the chip at a flow rate of 30 μL/min. The antigen-antibody association kinetics was followed for 2 minutes and the dissociation kinetics was followed for 10 minutes. The association and dissociation curves were fit to a 1:1 Langmuir binding model using BIAcore evaluation software.

[4] = target: T3, human Siglec15-Fc protein (human); assay: competitive ELISA: biotin-labeled human Siglec15-Fc in solution, competitor coated benchmark
T3 construct: In house made; also called recombinant human Siglec15 protein with human IgG1 Fc at the C-terminus
Protocol: The abilities of the anti-Siglec15 antibodies of the disclosure to block benchmark-human Siglec15 binding were measured in a competitive ELISA assay. Briefly, the benchmark was coated on 96-well micro plates at 2 μg/mL in PBS, 100 μl per well, and incubated for 2 hours at 37° C. Then plates were washed once with wash buffer, and blocked with 5% w/v non-fatty milk in PBST overnight at 4° C. The next day, the anti-Siglec15 antibodies of the disclosure or controls were diluted with biotin labeled human Siglec15-Fc protein (prepared in-house with SEQ ID NO: 19, 37 ng/ml in PBST with 2.5% w/v non-fatty milk), starting at 80 nM with a 4-fold serial dilution, and incubated at room temperature for 40 minutes. After plate washing 4 times, the antibody/Siglec15-Fc mixtures were added to benchmark coated plates, 100 μl per well. After incubation at 37° C. for 40 minutes, plates were washed 4 times again using wash buffer. Then the plates were added and incubated with 100 μl/well streptavidin conjugated HRP for 40 minutes at 37° C. Plates were washed again using wash buffer. Finally, TMB was added and the reaction was stopped using 1M H₂SO₄, and the absorbance of each well was read on a microplate reader using dual wavelength mode with 450 nm for TMB and 630 nm as the reference wavelength, then the OD (450-630) values were plotted against antibody concentration. Data was analyzed using Graphpad Prism software and IC₅₀ values were reported.

[5] = target: T4, mouse Siglec15-his protein (mouse); assay: indirect ELISA on coated mouse Siglec15-his
T4 construct: In house made
T4 chain: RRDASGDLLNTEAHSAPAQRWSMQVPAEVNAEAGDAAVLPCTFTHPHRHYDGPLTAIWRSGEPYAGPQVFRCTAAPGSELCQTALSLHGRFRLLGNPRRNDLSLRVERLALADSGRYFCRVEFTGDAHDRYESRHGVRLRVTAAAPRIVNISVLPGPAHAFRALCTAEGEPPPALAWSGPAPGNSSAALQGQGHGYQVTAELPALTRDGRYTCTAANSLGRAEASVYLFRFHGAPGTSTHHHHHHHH

T3 sequence (chain, as listed by the source limits assumed): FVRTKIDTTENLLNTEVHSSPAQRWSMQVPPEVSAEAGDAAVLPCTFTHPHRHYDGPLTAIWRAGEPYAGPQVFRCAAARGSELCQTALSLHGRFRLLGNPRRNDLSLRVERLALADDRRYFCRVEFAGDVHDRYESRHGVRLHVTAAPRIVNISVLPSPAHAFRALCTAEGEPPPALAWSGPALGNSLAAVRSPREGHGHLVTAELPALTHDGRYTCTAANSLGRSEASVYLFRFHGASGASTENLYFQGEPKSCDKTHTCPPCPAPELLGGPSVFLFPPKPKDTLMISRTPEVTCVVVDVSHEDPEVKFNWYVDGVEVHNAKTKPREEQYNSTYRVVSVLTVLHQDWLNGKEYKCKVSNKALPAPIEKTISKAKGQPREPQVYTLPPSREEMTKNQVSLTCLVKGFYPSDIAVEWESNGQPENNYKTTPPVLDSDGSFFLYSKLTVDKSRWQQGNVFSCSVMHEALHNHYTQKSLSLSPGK

Binder | EC50 [1] | EC50 [2] | Kd [3] | koff [3] | kon [3] | IC50 [4] | EC50 [5]
B1 | 24.1 nM | 1.17 nM | 0.0383 nM | 7.45e-05 s⁻¹ | 1.94e+06 M⁻¹ s⁻¹ | 0.0387 nM | –
B2 | – | 1.47 nM | 0.164 nM | 0.000273 s⁻¹ | 1.66e+06 M⁻¹ s⁻¹ | 0.0178 nM | –
B3 | – | 1.08 nM | 0.0396 nM | 7.46e-05 s⁻¹ | 1.88e+06 M⁻¹ s⁻¹ | 0.0357 nM | –
B4 | 11.3 nM | 0.877 nM | 0.422 nM | 0.000955 s⁻¹ | 2.27e+06 M⁻¹ s⁻¹ | 0.229 nM | 0.211 nM
B5 | – | – | – | – | – | – | 0.994 nM
B6 | – | – | – | – | – | – | 0.651 nM
B7 | – | – | – | – | – | – | 0.408 nM
B8 | 0.182 nM | – | – | – | – | – | –

— US20230106715A1 (BIOSION, published 2023)
